Test results reported in patent US20020086014A1 (Bristol-Myers Squibb, published 2002).

What was measured:
[1] = target: T1, purified recombinant human CTLA-4 (human, UniProt P16410 36-161, limits assumed); experiment: competitive ELISA on CTLA-4: unlabelled IgG 0-6666 ng/ml against biotin-labelled 3A4
T1 construct: also called purified CTLA-4; purified recombinant CTLA-4
T1 sequence (looked up): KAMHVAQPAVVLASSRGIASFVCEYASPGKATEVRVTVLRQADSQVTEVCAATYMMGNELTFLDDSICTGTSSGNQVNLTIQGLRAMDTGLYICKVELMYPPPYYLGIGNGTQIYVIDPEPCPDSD

[2] = target: T1, purified recombinant human CTLA-4; experiment: competitive ELISA on CTLA-4: unlabelled IgG 0-6666 ng/ml against biotin-labelled BNI 3.1
murine CTLA-4 (murine) = murine CTLA-4 (murine) (UniProt P09793); experiment: flow cytometry (FACScan), cell line expressing recombinant CTLA-4, FITC-anti human IgG
[3] = target: human CTLA-4 expressed on cells (human) (UniProt P16410); experiment: as above
macaque CTLA-4 (macaque) = experiment: as above

Sequence of murine CTLA-4 (murine) (P09793 36-223): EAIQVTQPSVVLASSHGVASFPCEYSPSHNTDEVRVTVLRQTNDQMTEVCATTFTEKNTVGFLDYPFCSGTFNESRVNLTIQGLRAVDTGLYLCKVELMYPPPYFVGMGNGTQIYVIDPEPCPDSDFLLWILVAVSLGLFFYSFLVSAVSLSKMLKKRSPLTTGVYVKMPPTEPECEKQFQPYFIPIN

BNI3 (antibody)
IC50 (read off the curve) [1]: 0.09 µg/mL | IC50 (read off the curve) [2]: 0.5 µg/mL

isotype control (Table 5) (antibody)
MFI (murine CTLA-4 (murine)): 5 MFI | MFI [3]: 3 MFI | MFI (macaque CTLA-4 (macaque)): 4 MFI

B1: 1E2 (antibody, V domains shown)
VH: QVQLVESGGGVVQPGRSLRLSCAASGFTFSSYGMHWVRQAPGKGLEWVAVIWYDGSNKYYADSVKGRFTISRDNSKNTLYLQMNSLRAEDTAVFYCARAPNYIGAFDVWGQGTMVTVSS
VL: DIQMTQSPSSLSASVGDRVTITCRASQGISSWLAWYQQKPEKAPKSLIYAASSLQSGVPSRFSGSGSGTDFTLTISSLQPEDFATYYCQQYNSYPPTFGQGTKVEIK
notes: Human anti-CTLA-4 monoclonal antibody
IC50 (read off the curve) [1]: ~0.2 µg/mL
